{"source": "paper PMC4604765", "about": "“Eye drop delivery of pigment epithelium-derived factor-34 promotes retinal ganglion cell neuroprotection and axon regeneration” (Molecular and Cellular Neurosciences, 2015)", "molecules": {"B1": {"name": "CNTF: ciliary neurotrophic factor (Peprotech), positive control at 440.5 pM (protein, UniProt P26441 1-200, looked up)", "Ciliary neurotrophic factor": "MAFTEHSPLTPHRRDLCSRSIWLARKIRSDLTALTESYVKHQGLNKNINLDSADGMPVASTDQWSELTEAERLQENLQAYRTFHVLLARLLEDQQVHFTPTEGDFHQAIHTLLLQVAAFAYQIEELMILLEYKIPRNEADGMPINVGDGGLFEKKLWGLKVLQELSQWTVRSIHDLRFISSHQTGIPARGSHYIANNKKM"}, "B2": {"name": "BDNF: brain-derived neurotrophic factor (protein, UniProt P23560 19-247, looked up)", "Neurotrophic factor BDNF …": "APMKEANIRGQGGLAYPGVRTHGTLESVNGPKAGSRGLTSLADTFEHVIEELLDEDQKVRPNEENNKDADLYTSRVMLSSQVPLEPPLLFLLEEYKNYLDAANMSMRVRRHSDPARRGELSVCDSISEWVTAADKKTAVDMSGGTVTVLEKVPVSKGQLKQYFYETKCNPMGYTKEGCRGIDKRHWNSQCRTTQSYVRALTMDSKKRIGWRFIRIDTSCVCTLTIKRGR"}, "B3": {"name": "full length PEDF: 50 kDa neurotrophic factor, member of the serpin superfamily (protein, UniProt P36955 1-418, looked up)", "chain": "MQALVLLLCIGALLGHSSCQNPASPPEEGSPDPDSTGALVEEEDPFFKVPVNKLAAAVSNFGYDLYRVRSSTSPTTNVLLSPLSVATALSALSLGAEQRTESIIHRALYYDLISSPDIHGTYKELLDTVTAPQKNLKSASRIVFEKKLRIKSSFVAPLEKSYGTRPRVLTGNPRLDLQEINNWVQAQMKGKLARSTKEIPDEISILLLGVAHFKGQWVTKFDSRKTSLEDFYLDEERTVRVPMMSDPKAVLRYGLDSDLSCKIAQLPLTGSMSIIFFLPLKVTQNLTLIEESLTSEFIHDIDRELKTVQAVLTVPKLKLSYEGEVTKSLQEMKLQSLFDSPDFSKITGKPIKLTQVEHRAGFEWNEDGAGTTPSPGLQPAHLTFPLDYHLNQPFIFVLRDTDTGALLFIGKILDPRGP", "modifications": "full-length", "notes": "50 kDa neurotrophic factor, member of the serpin superfamily"}}, "key": {"[1]": {"details": "rat, in vivo; cited from earlier work", "from_the_text": "Drug administration to the retina and vitreous body is challenging. Drugs applied to the surface of the eye rarely penetrate the ocular surface or enter into the vitreous body and the retina ([Gaudana et al., 2010]). Biological barriers such as the cornea, conjunctiva and the tear film limit penetration and bioavailability of topical drug preparations to the posterior segment of the eye and therefore direct injection of drugs to the vitreous is commonly used to target drugs to the retina ([Ayalasomayajula and Kompella, 2005; Carneiro et al., 2009; Eldaly and Styles, 2009; Yasukawa et al., 2001 ..."}, "[2]": {"system": "βIII-tubulin+ retinal neurons", "details": "CNTF 440.5 pM, 4 days in culture", "from_the_text": "For all in vitro experiments, adult 6–8-week-old female Sprague–Dawley rats weighing 170–220 g were used. Culture experiments included retinal cells treated with: (1), Neurobasal-A (NBA) alone (Control); and equimolar concentrations of (2), 2.16; (3) 5.4; (4), 10.8 and (5), 21.6 pM PEDF-34/-44; and (6), ciliary neurotrophic factor (CNTF: Peprotech, London, UK), as a positive control at an optimal neuroprotective/axogenic concentration of 440.5 pM, established by us previously ([Ahmed et al., 2009; Douglas et al., 2009]). […] All experiments were performed in triplicate and repeated on three independent occasions.\nMixed adult rat retinal cultures containing enriched populations of retinal neurons, including RGCs, were prepared from 6–8-week-old adult female Sprague–Dawley rats, as described previously ([Ahmed et al., 2006b, 2009, 2010; Douglas et al., 2009; Vigneswara et al., 2013]). Briefly, retinal cells were dissociated using a Papain dissociation kit according to the manufacturer's instructions (Worthington Biochemicals, Lakewood, NJ, USA). […]\nThe mean number of βIII-tubulin^+ neurons surviving, with neurites and the mean neurite length were quantified as described by us previously ([Vigneswara et al., 2013, 2014]). Briefly, chamber slides were anonymised by a second investigator and βIII-tubulin^+ neuronal soma and neurites quantified in 9 quadrants/well using Axiovision software (Version 4.8; Zeiss) and ImagePro (Version 6.3; Media Cybernetics, Bethesda, MD, USA). Of the 125,000 cells/well plated, the total numbers of neurons in each experiment were determined by βIII-tubulin^+ immunocytochemistry after allowing 30 min for cells to adhere to glass culture slides. […] Neurite outgrowth from at least 180 neurons/condition from the 9 wells was measured, except in control (NBA) cultures, in which a total of 108 neurons were measured."}, "RGC axons": {"system": "RGC axons", "details": "administration of CNTF after ONC; ref Vigneswara et al., 2013; cited from earlier work"}, "RGC": {"system": "RGC", "details": "intravitreal injections, ref Cheng et al., 2002, Kermer et al., 1998, Kurokawa et al., 1999, Monnier et al., 2011, Parrilla-Reverter et al., 2009, cited from earlier work", "from_the_text": "Other commonly used retinal neuron/RGC neuroprotective factors include BDNF, glial-derived neurotrophic factor (GDNF), neurotrophin (NT)-3, NT-4/5, as well as caspase inhibitors ([Cheng et al., 2002; Kermer et al., 1998; Kurokawa et al., 1999; Monnier et al., 2011; Parrilla-Reverter et al., 2009]). Although intravitreal injections of BDNF protect 100% of RGC for 7 days, efficiency declines to 60% by 21 days. Most neuroprotective strategies tested support the survival of a maximum of 60% of RGC at 2 weeks after injury ([Cheng et al., 2002; Kermer et al., 1998; Kurokawa et al., 1999; Monnier et ..."}, "[3]": {"system": "retinal ganglion cells (RGCs)", "details": "intravitreal delivery at 0, 7 and 14 days after ONC, equimolar concentrations, 21 days after ONC; ref Vigneswara et al., 2013; cited from earlier work", "experimental": "Here we wished to confirm that, in vivo, PEDF-34 was more neuroprotective than full length PEDF. After intravitreal injection of vehicle + 0 nM PEDF-34, 295 ± 15 FG^+ RGC/mm^2 survived 21 days after ONC + PBS (0 nM PEDF-34) (Fig. 2A and B). Increasing the dose of ..."}}, "note": "Like-named read-outs stand apart in the source and are kept apart here.", "data": [{"molecule": "^125I-labelled nerve growth factor: 125I-labelled nerve growth factor (26 kDa)", "values": [{"measurement": "time of peak accumulation in the retina and optic nerve", "setting": "[1]", "value": 6, "unit": "h"}]}, {"molecule": "B1", "values": [{"measurement": "fold increase in βIII-tubulin+ neuron survival compared to untreated cultures", "setting": "[2]", "value": 1.9, "unit": "fold"}, {"measurement": "RGC axon regeneration after ONC", "setting": "RGC axons", "value": "limited RGC axon regeneration"}]}, {"molecule": "B2", "values": [{"measurement": "RGC protected", "setting": "RGC; 7 days", "value": 100, "unit": "%"}, {"measurement": "RGC protected", "setting": "RGC; by 21 days", "value": 60, "unit": "%"}]}, {"molecule": "B3", "values": [{"measurement": "survival of RGCs from death", "setting": "[3]", "value": 55, "unit": "%"}]}]}
